Experimental data published in patent US20180326059A1 (GANYMED PHARMACEUTICALS, published 2018).

Target: Claudin 18 splice variant 2 (CLDN18.2), human (human)
Test: cell-based or functional assay

B1: IMAB362 (antibody, V domains shown)
VH: QVQLQQPGAELVRPGASVKLSCKASGYTFTSYWINWVKQRPGQGLEWIGNIYPSDSYTNYNQKFKDKATLTVDKSSSTAYMQLSSPTSEDSAVYYCTRSWRGNSFDYWGQGTTLTVSS
VL: DIVMTQSPSSLTVTAGEKVTMSCKSSQSLLNSGNQKNYLTWYQQKPGQPPKLLIYWASTRESGVPDRFTGSGSGTDFTLTISSVQAEDLAVYYCQNDYSYPFTFGSGTKLEIKR
modifications: In the in vivo imaging of Example 14 the antibody carried a Dyelight 680 label, site not given; unlabelled in the flow cytometry.
B1 was tested. Which “IMAB362-mediated ADCC on NUGC-4 cells, EC50 on chemotherapy-pretreated versus untreated target cells” value did it give?
Its value is ~0.33 fraction of the EC50 on untreated cells.
